Assay results published in patent US20080213284A1.

What was measured:
[1] = molecular target: receptor on VERO E6 cells (not identified in the filing); assay: flow cytometry on VERO E6 cells, FITC anti-human IgG Fc
[2] = molecular target: receptors in NIH 3T3 cells (not identified in the filing); assay: flow cytometry on NIH 3T3 cells, FITC anti-human IgG Fc
[3] = molecular target: receptor on VERO E6 cells (not identified in the filing)

Row | Substance | concentration at which it bound [1] [µg/mL] | concentration at which it bound [2] [µg/mL] | avidity [3] [µM]
1 | S1-Fc fusion protein (from UniProt P59594 14-333) | 1 |  | 
2 | S2-Fc fusion protein (from UniProt P59594 334-666) | 0.1 | 1 | 1
3 | S3-Fc fusion protein (from UniProt P59594 667-999) |  | 0.1 | 
